Assay results as given in patent US20120190819A1 (MEDICAL RESEARCH COUNCIL, published 2012).

biological target: T1, SH3 domain of yeast Sho1p (yeast two-hybrid bait, pEG202-Sho1-SH3) (yeast, UniProt P40073 300-367, limits assumed); experiment: yeast two-hybrid, Sho1-SH3 binding
T1 construct: domain: SH3 domain; also called Sho1p SH3 domain
Excerpt: We noted that other peptides containing a leucine at −5 (such as Apt03 and 05) were not inhibitory. Unlike AptA, these two peptide aptamers are constrained. To test the idea that constraint prevents the PPII helix of peptide aptamers such as Apt03 and 05 from productive interaction with Sho1 SH3, we replaced the C-terminal stop codon of AptA with codons encoding each amino acid residue in turn to make AptA a full-length peptide aptamer constrained in STM. After re-constraint, only one of the seven amino acid residues P, V, C, D, H, F and W at +5 allow binding to Sho1 SH3 in the context of a constrained protein (Table IV). This contrasts with the findings of Feng et al [Feng S, Chen J K, Yu H, Simon J A, Schreiber S L. 1994. Two binding orientations for peptides to the Src SH3 domain: development of a general model for SH3-ligand interactions. Science. 266: 1241-7] and Rickles et al [Rickles R J, Botfield M C, Zhou X M, Henry P A, Brugge J S, Zoller M J. 1995. Phage display selection of ligand residues important for Src homology 3 domain binding specificity. Proc Natl Acad Sci USA. […] In addition, none of the constrained AptA variants show the ability to inhibit Pbs2-Hog1 activation (Table IV). […] They further indicate that in the context of STM, the presence of one of the 7 permissive residues at position +5 either allows the formation of a left handed type II polyproline helix or allows interaction at a surface on Sho1 distinct from the SH3 domain.

T1 sequence (P40073 300-367 limits assumed): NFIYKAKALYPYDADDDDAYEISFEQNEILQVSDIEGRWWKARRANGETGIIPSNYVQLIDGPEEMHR

Binder	binding result
re-constrained AptA, RLNKPLPSLPVH in full-length STM (designed binder, Stop codon of AptA replaced, making a full-length aptamer constrained in STM) MIPWGLSEAKPATPEIQEIVDKVKPQLEEKTNETYGKLEAVQYKTQVDAGTNYYIKVRAGDNKYMHLKVFNGPRLNKPLPSLPVHGPPGQNEDLVLTGYQVDKNKDDELTGF	binds
re-constrained AptA, RLNKPLPSLPVC in full-length STM (designed binder, Stop codon of AptA replaced, making a full-length aptamer constrained in STM) MIPWGLSEAKPATPEIQEIVDKVKPQLEEKTNETYGKLEAVQYKTQVDAGTNYYIKVRAGDNKYMHLKVFNGPRLNKPLPSLPVCGPPGQNEDLVLTGYQVDKNKDDELTGF	binds
re-constrained AptA, RLNKPLPSLPVV in full-length STM (designed binder, Stop codon of AptA replaced, making a full-length aptamer constrained in STM) MIPWGLSEAKPATPEIQEIVDKVKPQLEEKTNETYGKLEAVQYKTQVDAGTNYYIKVRAGDNKYMHLKVFNGPRLNKPLPSLPVVGPPGQNEDLVLTGYQVDKNKDDELTGF	binds
re-constrained AptA, RLNKPLPSLPVF in full-length STM (designed binder, Stop codon of AptA replaced, making a full-length aptamer constrained in STM) MIPWGLSEAKPATPEIQEIVDKVKPQLEEKTNETYGKLEAVQYKTQVDAGTNYYIKVRAGDNKYMHLKVFNGPRLNKPLPSLPVFGPPGQNEDLVLTGYQVDKNKDDELTGF	binds
re-constrained AptA, RLNKPLPSLPVW in full-length STM (designed binder, Stop codon of AptA replaced, making a full-length aptamer constrained in STM) MIPWGLSEAKPATPEIQEIVDKVKPQLEEKTNETYGKLEAVQYKTQVDAGTNYYIKVRAGDNKYMHLKVFNGPRLNKPLPSLPVWGPPGQNEDLVLTGYQVDKNKDDELTGF	binds
re-constrained AptA, RLNKPLPSLPVN in full-length STM (designed binder, Stop codon of AptA replaced, making a full-length aptamer constrained in STM) MIPWGLSEAKPATPEIQEIVDKVKPQLEEKTNETYGKLEAVQYKTQVDAGTNYYIKVRAGDNKYMHLKVFNGPRLNKPLPSLPVNGPPGQNEDLVLTGYQVDKNKDDELTGF	binds
re-constrained AptA, RLNKPLPSLPVP in full-length STM (designed binder, Stop codon of AptA replaced, making a full-length aptamer constrained in STM) MIPWGLSEAKPATPEIQEIVDKVKPQLEEKTNETYGKLEAVQYKTQVDAGTNYYIKVRAGDNKYMHLKVFNGPRLNKPLPSLPVPGPPGQNEDLVLTGYQVDKNKDDELTGF	binds
re-constrained AptA, RLNKPLPSLPVK in full-length STM (designed binder, Stop codon of AptA replaced, making a full-length aptamer constrained in STM) MIPWGLSEAKPATPEIQEIVDKVKPQLEEKTNETYGKLEAVQYKTQVDAGTNYYIKVRAGDNKYMHLKVFNGPRLNKPLPSLPVKGPPGQNEDLVLTGYQVDKNKDDELTGF	binds
control peptide aptamer RLNKPLPSLPVG* (truncated STM) (designed binder, Ends at a stop codon after the added G (unconstrained control)) MIPWGLSEAKPATPEIQEIVDKVKPQLEEKTNETYGKLEAVQYKTQVDAGTNYYIKVRAGDNKYMHLKVFNGPRLNKPLPSLPVG	binds

The next lines start with the values.

binding result	Binder
no binding	re-constrained AptA, RLNKPLPSLPVT in full-length STM (designed binder, Stop codon of AptA replaced, making a full-length aptamer constrained in STM) MIPWGLSEAKPATPEIQEIVDKVKPQLEEKTNETYGKLEAVQYKTQVDAGTNYYIKVRAGDNKYMHLKVFNGPRLNKPLPSLPVTGPPGQNEDLVLTGYQVDKNKDDELTGF
no binding	re-constrained AptA, RLNKPLPSLPVM in full-length STM (designed binder, Stop codon of AptA replaced, making a full-length aptamer constrained in STM) MIPWGLSEAKPATPEIQEIVDKVKPQLEEKTNETYGKLEAVQYKTQVDAGTNYYIKVRAGDNKYMHLKVFNGPRLNKPLPSLPVMGPPGQNEDLVLTGYQVDKNKDDELTGF
no binding	re-constrained AptA, RLNKPLPSLPVA in full-length STM (designed binder, Stop codon of AptA replaced, making a full-length aptamer constrained in STM) MIPWGLSEAKPATPEIQEIVDKVKPQLEEKTNETYGKLEAVQYKTQVDAGTNYYIKVRAGDNKYMHLKVFNGPRLNKPLPSLPVAGPPGQNEDLVLTGYQVDKNKDDELTGF
no binding	re-constrained AptA, RLNKPLPSLPVS in full-length STM (designed binder, Stop codon of AptA replaced, making a full-length aptamer constrained in STM) MIPWGLSEAKPATPEIQEIVDKVKPQLEEKTNETYGKLEAVQYKTQVDAGTNYYIKVRAGDNKYMHLKVFNGPRLNKPLPSLPVSGPPGQNEDLVLTGYQVDKNKDDELTGF
no binding	re-constrained AptA, RLNKPLPSLPVY in full-length STM (designed binder, Stop codon of AptA replaced, making a full-length aptamer constrained in STM) MIPWGLSEAKPATPEIQEIVDKVKPQLEEKTNETYGKLEAVQYKTQVDAGTNYYIKVRAGDNKYMHLKVFNGPRLNKPLPSLPVYGPPGQNEDLVLTGYQVDKNKDDELTGF
no binding	re-constrained AptA, RLNKPLPSLPVI in full-length STM (designed binder, Stop codon of AptA replaced, making a full-length aptamer constrained in STM) MIPWGLSEAKPATPEIQEIVDKVKPQLEEKTNETYGKLEAVQYKTQVDAGTNYYIKVRAGDNKYMHLKVFNGPRLNKPLPSLPVIGPPGQNEDLVLTGYQVDKNKDDELTGF
no binding	re-constrained AptA, RLNKPLPSLPVL in full-length STM (designed binder, Stop codon of AptA replaced, making a full-length aptamer constrained in STM) MIPWGLSEAKPATPEIQEIVDKVKPQLEEKTNETYGKLEAVQYKTQVDAGTNYYIKVRAGDNKYMHLKVFNGPRLNKPLPSLPVLGPPGQNEDLVLTGYQVDKNKDDELTGF
no binding	re-constrained AptA, RLNKPLPSLPVG in full-length STM (designed binder, Stop codon of AptA replaced, making a full-length aptamer constrained in STM) MIPWGLSEAKPATPEIQEIVDKVKPQLEEKTNETYGKLEAVQYKTQVDAGTNYYIKVRAGDNKYMHLKVFNGPRLNKPLPSLPVGGPPGQNEDLVLTGYQVDKNKDDELTGF
no binding	re-constrained AptA, RLNKPLPSLPVE in full-length STM (designed binder, Stop codon of AptA replaced, making a full-length aptamer constrained in STM) MIPWGLSEAKPATPEIQEIVDKVKPQLEEKTNETYGKLEAVQYKTQVDAGTNYYIKVRAGDNKYMHLKVFNGPRLNKPLPSLPVEGPPGQNEDLVLTGYQVDKNKDDELTGF
no binding	re-constrained AptA, RLNKPLPSLPVR in full-length STM (designed binder, Stop codon of AptA replaced, making a full-length aptamer constrained in STM) MIPWGLSEAKPATPEIQEIVDKVKPQLEEKTNETYGKLEAVQYKTQVDAGTNYYIKVRAGDNKYMHLKVFNGPRLNKPLPSLPVRGPPGQNEDLVLTGYQVDKNKDDELTGF
no binding	re-constrained AptA, RLNKPLPSLPVQ in full-length STM (designed binder, Stop codon of AptA replaced, making a full-length aptamer constrained in STM) MIPWGLSEAKPATPEIQEIVDKVKPQLEEKTNETYGKLEAVQYKTQVDAGTNYYIKVRAGDNKYMHLKVFNGPRLNKPLPSLPVQGPPGQNEDLVLTGYQVDKNKDDELTGF

biological target: T1, SH3 domain of yeast Sho1p (yeast …); experiment: yeast two-hybrid screen, confirmed by interaction mating
Excerpt: Degenerate oligonucleotide cassettes were made by annealing and amplifying P20 and P21 encoding a biased library designed around the Pbs2p proline rich sequence ([…]) (SEQ ID NO: 33) that interacts with the SH3 domain of Sho1p. Translation of the cassette gives X(L/V/P/A)N(K/R)PLP(P/S/A)LP(L/V/P/A)X (SEQ ID NO: 34). At the DNA level, this oligonucleotide should give rise to a library with a theoretical complexity of 98,304. The cassette was ligated into STM pJG4-5, and grown up in XL10 Gold cells (Stratagene). The midi-prepped (Qiagen) DNA was used to create a yeast library of 6×10⁴ cells in EGY48, theoretically covering 60% of the sequences encoded by the library. These cells were mated with EGY42 cells carrying pEG202-Sho1-SH3, made as described above. Interactors were selected on -UHTL/X-Gal/Gal-Raff plates for 4 days, picked and the plasmids rescued into E. coli KC8 cells. The plasmids were transformed back into EGY48 to confirm interaction with the SH3 domain of Sho1p in EGY42 using an interaction-mating matrix.

Binder	binding result
STM peptide aptamer 01 (designed binder, Insert (with its GP ends) constrained in STM) MIPWGLSEAKPATPEIQEIVDKVKPQLEEKTNETYGKLEAVQYKTQVDAGTNYYIKVRAGDNKYMHLKVFNGPVPNKPLPALPVIGPGVNKPLPALPAHGPIRNKPLPSLPASGPPGQNEDLVLTGYQVDKNKDDELTGF	binds
STM peptide aptamer 09 (designed binder, Insert (with its GP ends) constrained in STM) MIPWGLSEAKPATPEIQEIVDKVKPQLEEKTNETYGKLEAVQYKTQVDAGTNYYIKVRAGDNKYMHLKVFNGPMLNKPLPSLPVGGPGLNKPLPSLPAAGPPGQNEDLVLTGYQVDKNKDDELTGF	binds
STM peptide aptamer 04 (designed binder, Insert (with its GP ends) constrained in STM) MIPWGLSEAKPATPEIQEIVDKVKPQLEEKTNETYGKLEAVQYKTQVDAGTNYYIKVRAGDNKYMHLKVFNGPYLNRPLPSLPAYGPWVNRPLPSLPLSGPPGQNEDLVLTGYQVDKNKDDELTGF	binds

More lines, now with the values ahead:

binding result	Binder
binds	STM peptide aptamer 06 (designed binder, Insert (with its GP ends) constrained in STM) MIPWGLSEAKPATPEIQEIVDKVKPQLEEKTNETYGKLEAVQYKTQVDAGTNYYIKVRAGDNKYMHLKVFNGPVVNKPLPSLPVKGPDVNKPLPSLPAVGPPGQNEDLVLTGYQVDKNKDDELTGF
binds	STM peptide aptamer 02 (designed binder, Insert (with its GP ends) constrained in STM) MIPWGLSEAKPATPEIQEIVDKVKPQLEEKTNETYGKLEAVQYKTQVDAGTNYYIKVRAGDNKYMHLKVFNGPVLNKPLPSLPVMGPTPNKPLPPLPAAGPPGQNEDLVLTGYQVDKNKDDELTGF
